Target: T1, GFP-SSH1 (human, UniProt Q8WYL5 1-1049)
T1 construct: Slingshot homolog 1 (SSH1); also called EGFP-SSH1; WT SSH1; source: HeLa, transiently transfected, in fixed cells
T1 sequence (looked up): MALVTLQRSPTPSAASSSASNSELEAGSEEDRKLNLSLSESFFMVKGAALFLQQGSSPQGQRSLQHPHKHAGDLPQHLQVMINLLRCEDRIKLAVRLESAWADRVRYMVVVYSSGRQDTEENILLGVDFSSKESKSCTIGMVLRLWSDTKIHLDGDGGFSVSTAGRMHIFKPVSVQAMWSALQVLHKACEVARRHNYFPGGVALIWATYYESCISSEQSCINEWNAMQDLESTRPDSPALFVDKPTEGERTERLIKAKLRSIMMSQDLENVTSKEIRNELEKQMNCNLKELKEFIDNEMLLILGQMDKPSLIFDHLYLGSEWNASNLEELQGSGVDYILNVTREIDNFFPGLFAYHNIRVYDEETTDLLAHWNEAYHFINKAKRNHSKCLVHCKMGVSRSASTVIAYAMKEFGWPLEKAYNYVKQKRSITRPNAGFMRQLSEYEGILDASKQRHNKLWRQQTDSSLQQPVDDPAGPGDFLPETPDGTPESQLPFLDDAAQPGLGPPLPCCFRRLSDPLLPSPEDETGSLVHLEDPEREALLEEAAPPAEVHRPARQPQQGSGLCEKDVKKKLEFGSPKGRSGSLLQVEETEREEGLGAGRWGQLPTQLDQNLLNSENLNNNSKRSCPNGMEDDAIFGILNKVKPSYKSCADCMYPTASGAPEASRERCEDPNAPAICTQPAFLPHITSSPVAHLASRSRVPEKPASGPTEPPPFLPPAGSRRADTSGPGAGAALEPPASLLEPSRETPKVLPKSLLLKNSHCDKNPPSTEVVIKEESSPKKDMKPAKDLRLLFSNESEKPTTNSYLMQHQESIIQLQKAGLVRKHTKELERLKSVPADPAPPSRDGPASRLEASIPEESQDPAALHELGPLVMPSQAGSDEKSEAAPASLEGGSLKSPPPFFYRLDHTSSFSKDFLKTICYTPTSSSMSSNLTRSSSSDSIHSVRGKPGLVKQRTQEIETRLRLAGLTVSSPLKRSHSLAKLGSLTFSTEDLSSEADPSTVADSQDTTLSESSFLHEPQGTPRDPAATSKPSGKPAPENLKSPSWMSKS
Assay: proximity ligation; in situ PLA (Duolink) in transiently transfected HeLa cells, fixed 24 h after transfection; rabbit GFP-specific and mouse Flag-specific primary antibodies; spot area per cell quantified by automated microscopy
Conditions: partners not purified

B1: Flag-NOD1 (receptor, human, UniProt Q9Y239 1-953, looked up)
chain: MEEQGHSEMEIIPSESHPHIQLLKSNRELLVTHIRNTQCLVDNLLKNDYFSAEDAEIVCACPTQPDKVRKILDLVQSKGEEVSEFFLYLLQQLADAYVDLRPWLLEIGFSPSLLTQSKVVVNTDPVSRYTQQLRHHLGRDSKFVLCYAQKEELLLEEIYMDTIMELVGFSNESLGSLNSLACLLDHTTGILNEQGETIFILGDAGVGKSMLLQRLQSLWATGRLDAGVKFFFHFRCRMFSCFKESDRLCLQDLLFKHYCYPERDPEEVFAFLLRFPHVALFTFDGLDELHSDLDLSRVPDSSCPWEPAHPLVLLANLLSGKLLKGASKLLTARTGIEVPRQFLRKKVLLRGFSPSHLRAYARRMFPERALQDRLLSQLEANPNLCSLCSVPLFCWIIFRCFQHFRAAFEGSPQLPDCTMTLTDVFLLVTEVHLNRMQPSSLVQRNTRSPVETLHAGRDTLCSLGQVAHRGMEKSLFVFTQEEVQASGLQERDMQLGFLRALPELGPGGDQQSYEFFHLTLQAFFTAFFLVLDDRVGTQELLRFFQEWMPPAGAATTSCYPPFLPFQCLQGSGPAREDLFKNKDHFQFTNLFLCGLLSKAKQKLLRHLVPAAALRRKRKALWAHLFSSLRGYLKSLPRVQVESFNQVQAMPTFIWMLRCIYETQSQKVGQLAARGICANYLKLTYCNACSADCSALSFVLHHFPKRLALDLDNNNLNDYGVRELQPCFSRLTVLRLSVNQITDGGVKVLSEELTKYKIVTYLGLYNNQITDVGARYVTKILDECKGLTHLKLGKNKITSEGGKYLALAVKNSKSISEVGMWGNQVGDEGAKAFAEALRNHPSLTTLSLASNGISTEGGKSLARALQQNTSLEILWLTQNELNDEVAESLAEMLKVNQTLKHLWLIQNQITAKGTAQLADALQSNTGITEICLNGNLIKPEEAKVYEDEKRIICF
notes: NOD1; the Flag-tagged plasmid is not described in the methods; source: HeLa, transiently transfected, in fixed cells
In the case of B1, the “area covered by PLA spots, against neighbouring GFP-negative cells” value is reported as ~4 fold.

From publication PMC4154870, “The Cofilin Phosphatase Slingshot Homolog 1 (SSH1) Links NOD1 Signaling to Actin Remodeling” (PLoS Pathogens, 2014)
